Reference: US20100092497A1, “METHODS OF IMMUNE OR HAEMATOLOGICAL ENHANCEMENT, INHIBITING TUMOUR FORMATION OR GROWTH, AND TREATING OR PREVENTING CANCER” (priority 2006, published 2010)

Assays:
[1] = tested on: EL-4 T cell thymic lymphoma; assay: EL-4 tumour challenge in mice fed experimental diets (tumour growth, rejection, response to paclitaxel); format: in vivo, C57BL/6 mice; conditions: for tumour response after paclitaxel: paclitaxel 30 mg/Kg i.p. at ~0.6 cm; for rank of efficacy in sensitising tumours to paclitaxel: diet 20 g Lf per 2.4 Kg plus paclitaxel 30 mg/Kg
EL-4 target cells = assay: Anti-tumour cytolytic activity of splenocytes (CTL assay); format: cell-based, mouse; conditions: for increase in anti-tumour cytolytic activity of splenocytes compared to control mice: Example 1, day 77; for increase in anti-tumour cytolytic activity of splenocytes: Example 2, after paclitaxel
Protocol: Splenocytes were harvested 28 days following tumour cell injection, as specified. They were incubated at 37° C. with EL-4 target cells in graded E:T ratios in 96-well round-bottom plates. After a 4-hour incubation, 50 μl of supernatant was collected, and lysis was measured using the Cyto Tox 96 Assay Kit (Promega, Madison, Wis., USA). Background controls for non-specific target and effector cell lysis were included. After background subtraction, percentage of cell lysis was calculated using the formula: 100×(experimental-spontaneous effector-spontaneous target/maximum target-spontaneous target).

IL-18 = conditions: as reported in WO 03/099323; cited from earlier work
[2] = 20 g Lf per 2.4 Kg diet in combination with paclitaxel treatment

B1: Fe-saturated Lf: Bovine lactoferrin of ~100% Fe saturation prepared with ferric nitrilo-triacetate (protein, UniProt P24627 20-708, looked up)
Lactotransferrin: APRKNVRWCTISQPEWFKCRRWQWRMKKLGAPSITCVRRAFALECIRAIAEKKADAVTLDGGMVFEAGRDPYKLRPVAAEIYGTKESPQTHYYAVAVVKKGSNFQLDQLQGRKSCHTGLGRSAGWIIPMGILRPYLSWTESLEPLQGAVAKFFSASCVPCIDRQAYPNLCQLCKGEGENQCACSSREPYFGYSGAFKCLQDGAGDVAFVKETTVFENLPEKADRDQYELLCLNNSRAPVDAFKECHLAQVPSHAVVARSVDGKEDLIWKLLSKAQEKFGKNKSRSFQLFGSPPGQRDLLFKDSALGFLRIPSKVDSALYLGSRYLTTLKNLRETAEEVKARYTRVVWCAVGPEEQKKCQQWSQQSGQNVTCATASTTDDCIVLVLKGEADALNLDGGYIYTAGKCGLVPVLAENRKSSKHSSLDCVLRPTEGYLAVAVVKKANEGLTWNSLKDKKSCHTAVDRTAGWNIPMGLIVNQTGSCAFDEFFSQSCAPGADPKSRLCALCAGDDQGLDKCVPNSKEKYYGYTGAFRCLAEDVGDVAFVKNDTVWENTNGESTADWAKNLNREDFRLLCLDGTRKPVTEAQSCHLAVAPNHAVVSRSDRAAHVKQVLLHQQALFGKNGKNCPDKFCLFKSETKNLLFNDNTECLAKLGGRPTYEEYLGTEYVTAIANLKKCSTSPLLEACAFLTR
modifications: iron-saturated (holo)
notes: Bovine lactoferrin of ~100% Fe saturation prepared with ferric nitrilo-triacetate
In the case of B1, the “tumour response after paclitaxel in mice on Lf diet” value ([1]; Example 1, diet 20 g Lf per 2.4 Kg plus paclitaxel 30 mg/Kg i.p. at tumours ~0.6 cm) is reported as “regressed to less than half their size within two weeks of administering paclitaxel, and disappeared altogether a week later”, the “mice that completely rejected the tumour challenge” value ([1]; Example 1, diet with 20 g of Lf per 2.4 Kg, ten mice) is reported as “one of ten” and the “mice that completely rejected the tumour challenge” value ([1]; Example 2, 1 g Fe-Lf diet) is reported as “one of ten”. The “tumour growth rate compared to control diet” value ([1]; Example 2, 5 and 25 g per 2.4 Kg of diet) was “grew significantly (p<0.05 at days 35-49) more slowly”, the “mice that completely rejected the tumour challenge” value ([1]; Example 2, 5 g Fe-Lf diet) was “two of ten” and the “mice that completely rejected the tumour challenge” value ([1]; Example 2, 25 g Fe-Lf diet) was “three of ten”. For the same molecule, the “tumour response after paclitaxel” value ([1]; Example 2, 100 g per 2.4 Kg of diet) was “regressed over two weeks, but then re-grew”, the “tumour response after paclitaxel” value ([1]; Example 2, all but the 100 g Fe-Lf diet (1, 5, 25 g per 2.4 Kg)) was “rapidly regressed and completely disappeared over the following three to four weeks” and the “tumour growth rate compared to control diet” value ([1]; Example 2, lowest and highest doses (1 and 100 g per 2.4 Kg of diet)) was “did not differ greatly from that of mice fed the control diet”. For the same molecule, the “increase in anti-tumour cytolytic activity of splenocytes compared to control mice” value (shortened to “increase … to control mice”) (EL-4 target cells; [2]) was 6.5 fold, the “increase … to control mice” value (EL-4 target cells; the one mouse which completely resisted the tumour challenge) was 6 fold and the “increase in anti-tumour cytolytic activity of splenocytes” value (EL-4 target cells; 5 g diet) was 6.7 fold. For the same molecule, the “increase in anti-tumour cytolytic activity of splenocytes” value (EL-4 target cells; 25 g diet) was 7 fold, the “increase in anti-tumour cytolytic activity of splenocytes” value (EL-4 target cells; 100 g diet) was 1.5 fold and the “increase in anti-tumour cytolytic activity of splenocytes, agent by itself” value (EL-4 target cells; Example 4, high dose vitamin D (45.2 mg/Kg) by itself or Fe-saturated Lf) was 1.9 fold.

B2: 50% Fe-saturated Lf: Bovine lactoferrin supplemented with Fe to ~50% saturation (protein, UniProt P24627 20-708, looked up)
Lactotransferrin: APRKNVRWCTISQPEWFKCRRWQWRMKKLGAPSITCVRRAFALECIRAIAEKKADAVTLDGGMVFEAGRDPYKLRPVAAEIYGTKESPQTHYYAVAVVKKGSNFQLDQLQGRKSCHTGLGRSAGWIIPMGILRPYLSWTESLEPLQGAVAKFFSASCVPCIDRQAYPNLCQLCKGEGENQCACSSREPYFGYSGAFKCLQDGAGDVAFVKETTVFENLPEKADRDQYELLCLNNSRAPVDAFKECHLAQVPSHAVVARSVDGKEDLIWKLLSKAQEKFGKNKSRSFQLFGSPPGQRDLLFKDSALGFLRIPSKVDSALYLGSRYLTTLKNLRETAEEVKARYTRVVWCAVGPEEQKKCQQWSQQSGQNVTCATASTTDDCIVLVLKGEADALNLDGGYIYTAGKCGLVPVLAENRKSSKHSSLDCVLRPTEGYLAVAVVKKANEGLTWNSLKDKKSCHTAVDRTAGWNIPMGLIVNQTGSCAFDEFFSQSCAPGADPKSRLCALCAGDDQGLDKCVPNSKEKYYGYTGAFRCLAEDVGDVAFVKNDTVWENTNGESTADWAKNLNREDFRLLCLDGTRKPVTEAQSCHLAVAPNHAVVSRSDRAAHVKQVLLHQQALFGKNGKNCPDKFCLFKSETKNLLFNDNTECLAKLGGRPTYEEYLGTEYVTAIANLKKCSTSPLLEACAFLTR
modifications: ~50% iron-saturated
With B2 the “rank of efficacy in sensitising tumours to paclitaxel” value (from here on “rank of efficacy”) ([1]; Example 1) was 50% Fe-saturated Lf>native Lf>apoLf and the “increase … to control mice” value (EL-4 target cells; [2]) was 1.5 fold.

B3: native Lf: Bovine lactoferrin of greater than 90% purity from Fonterra, native Fe saturation (protein, UniProt P24627 20-708, looked up)
Lactotransferrin: APRKNVRWCTISQPEWFKCRRWQWRMKKLGAPSITCVRRAFALECIRAIAEKKADAVTLDGGMVFEAGRDPYKLRPVAAEIYGTKESPQTHYYAVAVVKKGSNFQLDQLQGRKSCHTGLGRSAGWIIPMGILRPYLSWTESLEPLQGAVAKFFSASCVPCIDRQAYPNLCQLCKGEGENQCACSSREPYFGYSGAFKCLQDGAGDVAFVKETTVFENLPEKADRDQYELLCLNNSRAPVDAFKECHLAQVPSHAVVARSVDGKEDLIWKLLSKAQEKFGKNKSRSFQLFGSPPGQRDLLFKDSALGFLRIPSKVDSALYLGSRYLTTLKNLRETAEEVKARYTRVVWCAVGPEEQKKCQQWSQQSGQNVTCATASTTDDCIVLVLKGEADALNLDGGYIYTAGKCGLVPVLAENRKSSKHSSLDCVLRPTEGYLAVAVVKKANEGLTWNSLKDKKSCHTAVDRTAGWNIPMGLIVNQTGSCAFDEFFSQSCAPGADPKSRLCALCAGDDQGLDKCVPNSKEKYYGYTGAFRCLAEDVGDVAFVKNDTVWENTNGESTADWAKNLNREDFRLLCLDGTRKPVTEAQSCHLAVAPNHAVVSRSDRAAHVKQVLLHQQALFGKNGKNCPDKFCLFKSETKNLLFNDNTECLAKLGGRPTYEEYLGTEYVTAIANLKKCSTSPLLEACAFLTR
With B3 the “rank of efficacy” value ([1]; Example 1) was 50% Fe-saturated Lf>native Lf>apoLf and the “increase … to control mice” value (EL-4 target cells; [2]) was 3.4 fold.

B4: apoLf: Bovine lactoferrin with Fe removed by citric acid chelation (protein, UniProt P24627 20-708, looked up)
Lactotransferrin: APRKNVRWCTISQPEWFKCRRWQWRMKKLGAPSITCVRRAFALECIRAIAEKKADAVTLDGGMVFEAGRDPYKLRPVAAEIYGTKESPQTHYYAVAVVKKGSNFQLDQLQGRKSCHTGLGRSAGWIIPMGILRPYLSWTESLEPLQGAVAKFFSASCVPCIDRQAYPNLCQLCKGEGENQCACSSREPYFGYSGAFKCLQDGAGDVAFVKETTVFENLPEKADRDQYELLCLNNSRAPVDAFKECHLAQVPSHAVVARSVDGKEDLIWKLLSKAQEKFGKNKSRSFQLFGSPPGQRDLLFKDSALGFLRIPSKVDSALYLGSRYLTTLKNLRETAEEVKARYTRVVWCAVGPEEQKKCQQWSQQSGQNVTCATASTTDDCIVLVLKGEADALNLDGGYIYTAGKCGLVPVLAENRKSSKHSSLDCVLRPTEGYLAVAVVKKANEGLTWNSLKDKKSCHTAVDRTAGWNIPMGLIVNQTGSCAFDEFFSQSCAPGADPKSRLCALCAGDDQGLDKCVPNSKEKYYGYTGAFRCLAEDVGDVAFVKNDTVWENTNGESTADWAKNLNREDFRLLCLDGTRKPVTEAQSCHLAVAPNHAVVSRSDRAAHVKQVLLHQQALFGKNGKNCPDKFCLFKSETKNLLFNDNTECLAKLGGRPTYEEYLGTEYVTAIANLKKCSTSPLLEACAFLTR
modifications: iron-free (apo)
notes: Bovine lactoferrin with Fe removed by citric acid chelation
With B4 the “rank of efficacy” value ([1]; Example 1) was 50% Fe-saturated Lf>native Lf>apoLf and the “increase … to control mice” value (EL-4 target cells; [2]) was 2.4 fold.

B5: bovine lactoferrin: Single-chain iron-binding glycoprotein of 78 kDa present in bovine milk (protein, UniProt P24627 20-708, looked up)
Lactotransferrin: APRKNVRWCTISQPEWFKCRRWQWRMKKLGAPSITCVRRAFALECIRAIAEKKADAVTLDGGMVFEAGRDPYKLRPVAAEIYGTKESPQTHYYAVAVVKKGSNFQLDQLQGRKSCHTGLGRSAGWIIPMGILRPYLSWTESLEPLQGAVAKFFSASCVPCIDRQAYPNLCQLCKGEGENQCACSSREPYFGYSGAFKCLQDGAGDVAFVKETTVFENLPEKADRDQYELLCLNNSRAPVDAFKECHLAQVPSHAVVARSVDGKEDLIWKLLSKAQEKFGKNKSRSFQLFGSPPGQRDLLFKDSALGFLRIPSKVDSALYLGSRYLTTLKNLRETAEEVKARYTRVVWCAVGPEEQKKCQQWSQQSGQNVTCATASTTDDCIVLVLKGEADALNLDGGYIYTAGKCGLVPVLAENRKSSKHSSLDCVLRPTEGYLAVAVVKKANEGLTWNSLKDKKSCHTAVDRTAGWNIPMGLIVNQTGSCAFDEFFSQSCAPGADPKSRLCALCAGDDQGLDKCVPNSKEKYYGYTGAFRCLAEDVGDVAFVKNDTVWENTNGESTADWAKNLNREDFRLLCLDGTRKPVTEAQSCHLAVAPNHAVVSRSDRAAHVKQVLLHQQALFGKNGKNCPDKFCLFKSETKNLLFNDNTECLAKLGGRPTYEEYLGTEYVTAIANLKKCSTSPLLEACAFLTR
In the case of B5, the “intestinal IL-18 levels compared to recombinant human lactoferrin” value (IL-18) is listed as “lesser increase” and the “serum levels of IL-18” value (IL-18) is listed as “did not increase”.
